Positions of bridges follow the written chain, without caps; N, C: chain ends.
Molecular target: ACE-2 (human)
Experiment: other, ACE-2 enzyme inhibition

ACE-2 (human), sequence (Q9BYF1 1-740): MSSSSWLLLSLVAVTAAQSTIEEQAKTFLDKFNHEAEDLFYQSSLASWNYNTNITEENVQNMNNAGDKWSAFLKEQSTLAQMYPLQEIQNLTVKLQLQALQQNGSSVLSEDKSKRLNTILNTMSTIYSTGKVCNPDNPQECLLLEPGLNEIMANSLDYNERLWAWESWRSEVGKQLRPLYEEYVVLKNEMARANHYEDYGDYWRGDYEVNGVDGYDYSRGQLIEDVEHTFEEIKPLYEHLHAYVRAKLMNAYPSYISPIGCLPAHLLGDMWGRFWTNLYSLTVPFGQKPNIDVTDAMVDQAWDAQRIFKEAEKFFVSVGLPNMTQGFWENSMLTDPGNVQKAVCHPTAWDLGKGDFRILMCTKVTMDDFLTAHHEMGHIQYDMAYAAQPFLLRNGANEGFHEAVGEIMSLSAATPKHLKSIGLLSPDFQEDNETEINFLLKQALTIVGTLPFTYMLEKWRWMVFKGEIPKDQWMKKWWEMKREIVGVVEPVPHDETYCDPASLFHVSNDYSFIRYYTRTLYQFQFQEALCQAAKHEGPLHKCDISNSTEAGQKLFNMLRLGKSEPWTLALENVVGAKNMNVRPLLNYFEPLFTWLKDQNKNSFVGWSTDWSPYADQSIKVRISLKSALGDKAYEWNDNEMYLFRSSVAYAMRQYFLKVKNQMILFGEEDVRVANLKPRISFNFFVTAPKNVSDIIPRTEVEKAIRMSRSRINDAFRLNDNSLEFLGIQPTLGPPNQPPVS

Row | Binder | Ki [nM]
1 | Ac-GDLHACRPVRGDPWWACTLGDPEGGG-NH2 (disulfide 6-17 (inferred)) [DX-513] | 150
2 | Ac-GDRLHCKPQRQSPWMKCQHLDPEGGG-NH2 (disulfide 6-17 (inferred)) [DX-512] | 150
